Results reported in patent US20250215104A1 (WALDEN BIOSCIENCES, published 2025).
Positions count from the first letter of the chain named.

B1: suPAR_DB02_B04 (scFv, V domains shown)
VH: QVQLVQSGAEVKKPGASVKVSCKASGYTFTGHYMHWVRQAPGQGLEWMGWIDHENGNTIYDQKFQGRVTMTRDTSTSTVYMELSSLRSEDTAVYYCARGYDVDWFVYWGQGTLVTVSS
VL: DIQMTQSPSSLSASVGDRVTITCSARSSVSYMYWYQQKPGKAPKLLIYRTSNLASGVPSRFSGSGSGTDFTLTISSLQPEDFATYYCQQYHSYPPTFGGGTKVEIK
notes: Screened as scFv
B2: suPAR_DB01_H08 (scFv, V domains shown)
VH: QVQLVQSGAEVKKPGASVKVSCKASGFNIKDYYIHWVRQAPGQGLEWMGWIDPNGGGTQYAQKFQGRVTMTRDTSTSTVYMELSSLRSEDTAVYYCARGYDVDWFVYWGQGTLVTVSS
VL: B1 VL with S24R, R26S, A54Q
notes: Screened as scFv
B3: suPAR_DB02_C05 (scFv, V domains shown)
VH: B1 VH with Y27G, T30S, G31S, H32Y
VL: B1 VL
notes: Screened as scFv
B4: suPAR_DB02_C01 (scFv, V domains shown)
VH: B1 VH with H32Y, H53P, N57S
VL: B1 VL with S24R, S27Q
notes: Screened as scFv
B5: suPAR_DB02_B05 (scFv, V domains shown)
VH: B1 VH with G31S, H32Y, I59S, D61A
VL: B1 VL with S24R, S27Q
notes: Screened as scFv
B6: suPAR_DB02_B07 (scFv, V domains shown)
VH: B1 VH with Y27H, T30S, G31S, H32Y, H53P, D61A
VL: B1 VL with S27Q, V29I
notes: Screened as scFv
B7: suPAR_DB02_C02 (scFv, V domains shown)
VH: B1 VH with T30K, G31S, H32Y, R98S
VL: B1 VL
notes: Screened as scFv
B8: suPAR_DB02_B10 (scFv, V domains shown)
VH: B1 VH with G31N, H32Y, H53P, I59S
VL: B1 VL with S24R, S27Q
notes: Screened as scFv
B9: suPAR_DB02_B06 (scFv, V domains shown)
VH: B1 VH with Y27D, G31S, H32Y, N55G, N57S, D61A, K63Q
VL: B1 VL
notes: Screened as scFv
B10: suPAR_DB02_B08 (scFv, V domains shown)
VH: B1 VH with T28S, G31N, H32Y, N57S, I59S
VL: B1 VL
notes: Screened as scFv
B11: suPAR_DB02_B09 (scFv, V domains shown)
VH: B1 VH with H32Y, M34V, E54S, R98S
VL: B1 VL
notes: Screened as scFv
B12: suPAR_DB02_C04 (scFv, V domains shown)
VH: B2 VH with P53H, N54E, G57S, Q59S, A61D
VL: B1 VL
notes: Screened as scFv
B13: suPAR_DB05_B12 (scFv, V domains shown)
VH: B1 VH with G31N, H32Y, H53P, D61A
VL: B1 VL with S27Q
notes: Screened as scFv
B14: suPAR_DB05_A08 (scFv, V domains shown)
VH: B1 VH with G31N, H32Y, H53S, E54N, N55S, N57G, I59N, D61A
VL: B1 VL
notes: Screened as scFv
B15: suPAR_DB04_H05 (scFv, V domains shown)
VH: B1 VH with Y27H, F29L, T30N, G31S, H32Y, H53P, N55G, D61A
VL: B1 VL
notes: Screened as scFv
B16: suPAR_DB05_B01 (scFv, V domains shown)
VH: B1 VH with T28P, G31S, H32Y
VL: B1 VL with R26S
notes: Screened as scFv
B17: suPAR_DB04_H10 (scFv, V domains shown)
VH: B1 VH with G31S, H32Y, D52S, H53P, E54D, N55S, N57G, I59N, D61A
VL: B1 VL with S24R
notes: Screened as scFv
B18: suPAR_DB04_H08 (scFv, V domains shown)
VH: B2 VH with F27Y, N28T, I29F, K30S, D52S, N54K, G55S, G57V, Q59N
VL: B1 VL with R26S, S27Q
notes: Screened as scFv
B19: suPAR_DB05_A05 (scFv, V domains shown)
VH: B1 VH with G31N, H32Y, H53P, E54S, N55G, N57S, I59S, D61A
VL: B1 VL with S24R, S27Q
notes: Screened as scFv
B20: suPAR_DB05_A10 (scFv, V domains shown)
VH: B1 VH with G31N, H32Y, M34I, H53P, E54S
VL: B1 VL
notes: Screened as scFv
B21: suPAR_DB04_H03 (scFv, V domains shown)
VH: B1 VH with H32N, M34L, E54S, N57S, Y100S
VL: B1 VL with R26S
notes: Screened as scFv
B22: suPAR_DB05_A06 (scFv, V domains shown)
VH: B1 VH with G31S, M34V
VL: B1 VL
notes: Screened as scFv
B23: suPAR_DB05_A07 (scFv, V domains shown)
VH: B1 VH with G31N, H32Y, H35Q, D61A
VL: B1 VL with S27Q
notes: Screened as scFv
B24: suPAR_DB04_H07 (scFv, V domains shown)
VH: B1 VH with G31S, H32Y, I59S
VL: B1 VL with S24R
notes: Screened as scFv
B25: suPAR_DB04_H09 (scFv, V domains shown)
VH: QVQLVQSGAEVKKPGASVKVSCKASGGTFSGYYMHWVRQAPGQGLEWVGWITPDSGATAYAQKFQGRVTMTRDTSTSTVYMELSSLRSEDTAVYYCARGYDVDWFVYWGQGTLVTVSS
VL: B1 VL with S27Q
notes: Screened as scFv
B26: suPAR_DB05_B03 (scFv, V domains shown)
VH: B25 VH with G27Y, S30T, G31S, M34I, V48I, I51M, T52D, D54N, A57S, T58A
VL: B1 VL
notes: Screened as scFv
B27: suPAR_DB04_H06 (scFv, V domains shown)
VH: B1 VH with G31N, H32Y, M34V, I59S, D61A
VL: B1 VL with A54Q
notes: Screened as scFv
B28: suPAR_DB05_B02 (scFv, V domains shown)
VH: B2 VH with F27Y, N28T, N54E, G55N, G57N, Q59I
VL: B1 VL
notes: Screened as scFv
B29: suPAR_DB05_A11 (scFv, V domains shown)
VH: B25 VH with G27Y, S30T, V48M, T52D, D54N, A57G, A59N
VL: B1 VL
notes: Screened as scFv
B30: suPAR_DB05_B04 (scFv, V domains shown)
VH: B1 VH with G31T, H32Y, H53P, E54S
VL: B1 VL
notes: Screened as scFv

These binders were tested against T1, cynomolgus soluble urokinase plasminogen activator receptor (cynomolgus suPAR) (cynomolgus, UniProt Q9GK78 23-303, limits assumed) (assay: BLI (Octet) off-rate screen of scFv).
T1 construct: also called cynomolgus uPAR; cynoPLAUR-His
T1 sequence (Q9GK78 23-303 limits assumed): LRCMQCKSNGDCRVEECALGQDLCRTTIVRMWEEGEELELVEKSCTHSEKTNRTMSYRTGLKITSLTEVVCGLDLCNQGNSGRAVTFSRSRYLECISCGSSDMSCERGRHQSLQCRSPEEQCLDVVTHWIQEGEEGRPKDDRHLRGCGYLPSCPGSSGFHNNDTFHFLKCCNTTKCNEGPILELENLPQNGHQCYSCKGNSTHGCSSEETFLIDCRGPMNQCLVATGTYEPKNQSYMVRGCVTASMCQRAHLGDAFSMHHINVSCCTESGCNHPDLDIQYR
A koff of 0.000185 s⁻¹ was found for B1 in this work.
A koff of 0.00038 s⁻¹ was found for B2 in this work.
A koff of 0.000285 s⁻¹ was found for B3 in this work.
A koff of 0.00025 s⁻¹ was found for B4 in this work.
A koff of 0.000199 s⁻¹ was found for B5 in this work.
A koff of 8.12e-05 s⁻¹ was found for B6 in this work.
A koff of 3.58e-05 s⁻¹ was found for B7 in this work.
A koff of 0.000434 s⁻¹ was found for B8 in this work.
A koff of 0.000127 s⁻¹ was found for B9 in this work.
A koff of 8.61e-05 s⁻¹ was found for B10 in this work.
A koff of 0.000208 s⁻¹ was found for B11 in this work.
A koff of 0.00132 s⁻¹ was found for B12 in this work.

These binders were tested against T2, human soluble urokinase plasminogen activator receptor (hsuPAR) (human, UniProt Q03405 23-303, limits assumed) (assay: BLI (Octet) off-rate screen of scFv).
T2 construct: also called human suPAR; rhuPAR-His
T2 sequence (Q03405 23-303 limits assumed): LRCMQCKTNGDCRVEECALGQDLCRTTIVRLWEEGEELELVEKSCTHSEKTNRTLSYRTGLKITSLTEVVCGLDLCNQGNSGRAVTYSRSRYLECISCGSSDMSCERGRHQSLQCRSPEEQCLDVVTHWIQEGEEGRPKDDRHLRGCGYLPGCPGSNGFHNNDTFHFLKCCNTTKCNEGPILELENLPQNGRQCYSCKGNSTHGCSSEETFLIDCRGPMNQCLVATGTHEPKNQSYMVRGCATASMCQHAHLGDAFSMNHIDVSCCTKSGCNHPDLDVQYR
A koff of 0.00477 s⁻¹ was found for B1 in this work.
A koff of 0.00281 s⁻¹ was found for B2 in this work.
A koff of 0.00504 s⁻¹ was found for B3 in this work.
A koff of 0.00465 s⁻¹ was found for B4 in this work.
A koff of 0.0041 s⁻¹ was found for B5 in this work.
A koff of 0.00447 s⁻¹ was found for B6 in this work.
A koff of 0.00429 s⁻¹ was found for B7 in this work.
A koff of 0.00189 s⁻¹ was found for B8 in this work.
A koff of 0.00353 s⁻¹ was found for B9 in this work.
A koff of 0.00155 s⁻¹ was found for B10 in this work.
A koff of 0.00422 s⁻¹ was found for B11 in this work.
A koff of 0.00128 s⁻¹ was found for B12 in this work.

Each binder was assayed against T3, cynomolgus soluble urokinase plasminogen activator receptor (suPAR) (cynomolgus, UniProt Q9GK78 23-303, limits assumed) (assay: BLI (Octet) off-rate screen of scFv clones).
T3 construct: Column head says only 'cynomologus'; also called cynomolgus suPAR; cynomolgus uPAR
T3 sequence (Q9GK78 23-303 limits assumed): as the sequence (Q9GK78 23-303 limits assumed) above
A koff of 0.000383 s⁻¹ was found for B13 in this work.
A koff of 9.8e-05 s⁻¹ was found for B14 in this work.
A koff of 0.000182 s⁻¹ was found for B15 in this work.
A koff of 0.000232 s⁻¹ was found for B16 in this work.
A koff of 0.000323 s⁻¹ was found for B17 in this work.
A koff of 5.42e-07 s⁻¹ was found for B18 in this work.
A koff of 0.000639 s⁻¹ was found for B19 in this work.
A koff of 0.000462 s⁻¹ was found for B20 in this work.
A koff of 0.000226 s⁻¹ was found for B21 in this work.
A koff of 0.000277 s⁻¹ was found for B22 in this work.
A koff of 0.00029 s⁻¹ was found for B23 in this work.
A koff of 0.000249 s⁻¹ was found for B24 in this work.
A koff of 8.8e-05 s⁻¹ was found for B25 in this work.
A koff of 0.000311 s⁻¹ was found for B26 in this work.
A koff of 0.000289 s⁻¹ was found for B27 in this work.
A koff of 0.000419 s⁻¹ was found for B28 in this work.
A koff of 0.000311 s⁻¹ was found for B29 in this work.
A koff of 0.000606 s⁻¹ was found for B30 in this work.

The binders below were run against T4, human soluble urokinase plasminogen activator receptor (suPAR) (human, UniProt Q03405 23-303, limits assumed) (assay: BLI (Octet) off-rate screen of scFv clones).
T4 construct: Column head says only 'human'; also called hsuPAR; human suPAR
T4 sequence (Q03405 23-303 limits assumed): as the sequence (Q03405 23-303 limits assumed) above
A koff of 0.00472 s⁻¹ was found for B13 in this work.
A koff of 0.00307 s⁻¹ was found for B14 in this work.
A koff of 0.00584 s⁻¹ was found for B15 in this work.
A koff of 0.00356 s⁻¹ was found for B16 in this work.
A koff of 0.00354 s⁻¹ was found for B17 in this work.
A koff of 0.0034 s⁻¹ was found for B18 in this work.
A koff of 0.00553 s⁻¹ was found for B19 in this work.
A koff of 0.00541 s⁻¹ was found for B20 in this work.
A koff of 0.00134 s⁻¹ was found for B21 in this work.
A koff of 0.00352 s⁻¹ was found for B22 in this work.
A koff of 0.00495 s⁻¹ was found for B23 in this work.
A koff of 0.00511 s⁻¹ was found for B24 in this work.
A koff of 0.00475 s⁻¹ was found for B25 in this work.
A koff of 0.00366 s⁻¹ was found for B26 in this work.
A koff of 0.00926 s⁻¹ was found for B27 in this work.
A koff of 0.00565 s⁻¹ was found for B28 in this work.
A koff of 0.0018 s⁻¹ was found for B29 in this work.
A koff of 0.00623 s⁻¹ was found for B30 in this work.
